Test results published in the nanobody polyreactivity screen of Harvey et al. (2022).

Assay: yeast display, Sf9 membrane polyspecificity reagent, FACS + sequencing; frameworks hold sequencing errors
In short: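 A synthetic nanobody library was expressed on Saccharomyces cerevisiae BJ5465 by galactose induction for 36–48 hours. The library was stained for 1 hour at 4 °C with 10% biotinylated, detergent-solubilized Sf9 membrane reagent and enriched with streptavidin microbeads before FACS. Low and high (top ~1%) gates were set on anti-HA fluorescence for expression and streptavidin fluorescence for reagent binding, and each polyreactivity label reflects the gate of origin.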

Row | Sequence | polyreactivity (PSR sort gate)
1 | QVQLVESGGGLVQAGGSLRLSCAASGRTFNYYAMGWYRQAPGKERELVAAISRSGGSTYYADSVKGRFTISRDNAKNTVYLQMNSLKPEDTAVYYCAVAWNVRGVGARQRYIYGYWGQGTQVTVSS | high polyreactivity
2 | QVQLVESGGGLVQAGGSLRLSCAASGRTFNYYAMGWYRQAPGKERELVAAISWSGTPTYYADSVKGRFTISRDNAKNTVYLQMNSLKPEDTAVYYCAAGYNYTSYADLDYWGQGTQVTVSS | low polyreactivity
3 | QVQLVESGGGLVQAGGSLRLSCAASGRTFNYYAMGWYRQAPGKERELVAAITSGSTTYYADSVKGRFTISRDNAKNTVYLQMNSLKPEDTAVYYCATAWRPADNSWGQGTQVTVSS | low polyreactivity
4 | QVQLVESGGGLVQAGGSLRLSCAASGRTFNYYARGWYRQAPGKERELVAAISKRGGSTYYADSVKGRFTISRDNAKNTVYLQMNSLKPEDTAVYYCNAAQSVELGYDYWGKGTQVTVSS | high polyreactivity
5 | QVQLVESGGGLVQAGGSLRLSCAASGRTFPAYAMGWYRQAPGKERELVASIDLSGGSTSYADSVKGRFTISRDNAKNTVYLQMNSLKPEDTAVYYCAKKGRWSSASSGYYYWGQGTQVTVSS | low polyreactivity
6 | QVQLVESGGGLVQAGGSLRLSCAASGRTFPCYAMGWYRQAPGKEREFVAAITASGDSTYYADSVKGRFTISRDNAKNTVYLQMNSLKPEDTAVYYCAADLPVWYVTRYDYWGQGTQVTVSS | low polyreactivity
7 | QVQLVESGGGLVQAGGSLRLSCAASGRTFPEYDMGWYIQAPGKERELVAAISTSGGSTYYADSVKGRFTISRDNAKNTVYLQMNSLKPEDTAVYYCAAQVTSIWGFTYAYRYDYWGQGTQVTVSS | low polyreactivity
8 | QVQLVESGGGLVQAGGSLRLSCAASGRTFPGNAMGWYRQAPGKERELVAAISYRGGSTYYADSVKGRFTISRDNAKNTVYLQMNSLKPEDTAVYYCAAASERTGYYYWGQGTQVTVSS | high polyreactivity
9 | QVQLVESGGGLVQAGGSLRLSCAASGRTFPGNAMGWYRQAPGKERELVAGISYRGGSTYYADSVKGRFTISRDYGKNTVYLQMNSLKPEDTAVYYCARDYSRHKGDYWGQGTQVNVSS | low polyreactivity
10 | QVQLVESGGGLVQAGGSLRLSCAASGRTFPGYAMGWYRQAPGKERELVASITSRGGITNYADSVKGRFTISRDIAKNTVYLQMLCLKPEDTSVYYCAAVSFWTMDYWGQGTQVTVSS | low polyreactivity
11 | QVQLVESGGGLVQAGGSLRLSCAASGRTFPGYAMGWYRQAPGKERELVATITFSDGSTYYADSVKGRFTISRDNAKNSVYLQMNSLKQEDTAVYYCNARRSYFLRYGVNYWGQGNQVTVSS | low polyreactivity
12 | QVQLVESGGGLVQAGGSLRLSCAASGRTFPGYAMGWYRQAPGKETELVATISSADSTNYADSVKGRFTISRDNAKNTVYLQMNSLKPEDTAVYYCAERYGRNGAAAQYTGWYRYDYWGQGTQVTVSS | low polyreactivity
13 | QVQLVESGGGLVQAGGSLRLSCAASGRTFPHYAMGWYRQAPGKERELVAAISSSGGSTYYADSVKGRFTISRDNAKNTVYLQMNSLKPEDNAVYYCAARYVDDGWKYDYWGQGTQVTVSS | low polyreactivity
14 | QVQLVESGGGLVQAGGSLRLSCAASGRTFPINAMGWYRQAPGKERELVASIRWTDGTTYYADSVKGRFTISRDNAKNTVYLQMNSLKPEDTAVYYCAADAEGSASKYDYWGQGTQVTVSS | low polyreactivity
15 | QVQLVESGGGLVQAGGSLRLSCAASGRTFPLNAMGWYRQAPGKERELVASITKSTGNTRYADSVKGRFTISRDNAKNTVYLQMNSLKPEDTAVYYCAARSYRDRYYWGQGTQVNVSS | high polyreactivity
16 | QVQLVESGGGLVQAGGSLRLSCAASGRTFPLYAMGWYRQAPGKERELVAAISLSGGRTYYADSVKGRFTISRDNAKNTVYLQMNSLKPEDTAVYYCAARGTLSAQVGIRRYDYWGQGTQVTVSS | low polyreactivity
17 | QVQLVESGGGLVQAGGSLRLSCAASGRTFPRNAMGWSRQAPGKERELVAAISSTGDSTYYADSVKGRFTISRDNAKNTVYLQMNSLKPEDTAVYYCHYPYDYWGKGTQVTVSS | low polyreactivity
18 | QVQLVESGGGLVQAGGSLRLSCAASGRTFPRNGMGWYRQAAGKERELVAAICWSGGRTYYADSVKGRFTISRDNAKNTVYLQMNSLKPEDTAVYYCNALYFRKGGYWGQGTQVTVSS | high polyreactivity
19 | QVQLVESGGGLVQAGGSLRLSCAASGRTFPRNGMGWYRQAPGTERELVAAISWSGGRTYYADSVKGRFTISRDNAKNTVYLQMNSLKPEDTAVYYCNALYFRKGGYWGQGTQVTVSS | high polyreactivity
20 | QVQLVESGGGLVQAGGSLRLSCAASGRTFPRYAMGWYRPAAGKVWELVAAISVRAGITYYADSVKGRFTISRDNAKNTVYFQMNSLKPEDTAVYYCAKDHWTTSYDEGDYWGQGTQETVSS | low polyreactivity
21 | QVQLVESGGGLVQAGGSLRLSCAASGRTFPRYAMGWYRQAPGKERELVAGISWSGGRTYYADSVKGRFTISRDNAKNTVYLQMNSLKPEDTAVYYCAVVSKNLSYRTTFYYWGQGTQVTVSS | high polyreactivity

Row | Sequence | polyreactivity (PSR sort gate)
22 | QVQLVESGGGLVQAGGSLRLSCAASGRTFPRYTMGWYRQAPGKERELVAASATGGSTYYADSVKGRFTISRDNAKNTVYLQMNSLKPEDTAVYYCAAYKLYPYYSTEYDYWGQGTQVTVSS | high polyreactivity
23 | QVQLVESGGGLVQAGGSLRLSCAASGRTFPRYVMGWNRQAPGKERELVAAISSSGGSTYYADSVKGRFTISRDNAKNTVYLQMNSLKPEDTAVYYCAAPSGGSKRYYYWGQGTKVTVSS | high polyreactivity
24 | QVQLVESGGGLVQAGGSLRLSCAASGRTFPSYAMGWYRQAPGKERELVAAITRGGSTNYADSVKGRFTISRDNAKNTVYLQMNSLKPEDTAVYYCAAARWRWQLARDDYWGQGTQVTVSS | high polyreactivity
25 | QVQLVESGGGLVQAGGSLRLSCAASGRTFPSYAMGWYRQAPGKERELVAAITRGGSTNYADSVKGRFTISRDNAKNTVYLQMNSLKPEDTAVYYWAAARWRWQLARDDYWGQGTQVTVSS | high polyreactivity
26 | QVQLVESGGGLVQAGGSLRLSCAASGRTFPSYAMGWYRQAPGTERELVAAITVSGGNTYYAHSVKGRFTISRDNAKNTVYLQMNSLKPEDTAVYYCNTPSYVSWYVHYYYWGQGTQVTVSS | low polyreactivity
27 | QVQLVESGGGLVQAGGSLRLSCAASGRTFPSYAMGWYRQSPGKERELVAAITVSGGNTYYADSVKGRFTISRDNAKNTVYLQMNSLKPEDTAVYYCNTASYVSWYVHYYYWGQGTQVTVSS | low polyreactivity
28 | QVQLVESGGGLVQAGGSLRLSCAASGRTFPTNAMGWYRQAPGKERELVARITWSGGSTYADSVKGRFTISRDNAKNTVYFQMNSLKPEDTAVYYCAARGYKPQFPWRRYDYWGQGTQVTVSS | high polyreactivity
29 | QVQLVESGGGLVQAGGSLRLSCAASGRTFPVNAMGWYRQAPGKERELVAAITTNGGRTYYADSVKGRFTISRDNAKNTVYLQMNSLKPEDTAVYYCATRAYNDKRYGYWGQGTQVTVSS | high polyreactivity
30 | QVQLVESGGGLVQAGGSLRLSCAASGRTFPWYAMGWYRQAPGKERELVADITWSGGSTYYADSVKGRFTISRDNAKNTVYLQMNSLKPEDTAVYYCATRVLFWYRKYPGRPLTKYDYWGQGTQVTVSS | high polyreactivity
31 | QVQLVESGGGLVQAGGSLRLSCAASGRTFPWYAMGWYRQAPGKERELVATISRSGASTYYADSVKGRFTISRDNAKNTVYLQMNSLKPEDTAVYYCAARLGYATLYSWGQGTQVTVSS | high polyreactivity
32 | QVQLVESGGGLVQAGGSLRLSCAASGRTFPYNAMGWYRQAPGKERELVAAISYSGGRTYYADSVKGRFTISRDNAKNTVYLLMNSLKPEDTAVYYCNALGSGREDDYWGQGTQVTVSS | high polyreactivity
33 | QVQLVESGGGLVQAGGSLRLSCAASGRTFPYNAMGWYRQAPGKERELVAVISSSGGSTYYADSVKGRFTISRDNAKNTVYLQMNSLKPEETAVYYCNTRPYYYRRPGYRYSGYDYWGQGTQVTVSS | high polyreactivity
34 | QVQLVESGGGLVQAGGSLRLSCAASGRTFPYYAMGWSRQAPGKERELVAGITSNAGSTYYADSVKGRFTISRDNAKNTVYLQMNSLKPEDTAVYYCAKTKAGRWTTFKFGYWGQGTQVTVSS | high polyreactivity
35 | QVQLVESGGGLVQAGGSLRLSCAASGRTFPYYAMGWYRQAPGKEREFVAGISRTGGSTYYADSVKGRFTISRDNAKNTVYLQMNSLKPEDTAVYYCNAPYIMTQQGGRRYDYWGQGTQVTVSS | high polyreactivity
36 | QVQLVESGGGLVQAGGSLRLSCAASGRTFPYYAMGWYRQAPGKERELVAAINGRGGSTYYSDSVKGRFTISRDNAKNTVYLQMNSLKPEDTAVYYCAARYESRYSRYGYWGQGTQVTVSS | high polyreactivity
37 | QVQLVESGGGLVQAGGSLRLSCAASGRTFPYYAMGWYRQAPGKERELVAAISYSGGTTYYADSVKGRFTISRDNAKNTVYLQMNSLKPEDTAVYYCAAERAILSSDKQSLWRFDYWGQGTQVTVSS | low polyreactivity
38 | QVQLVESGGGLVQAGGSLRLSCAASGRTFPYYAMGWYRQAPGKERELVARIRSDGSTNYADSVKGRFTISRDNAKNTVYLQINSLKPDDTAVYDCAAKPYPSLFFHYGYWGQGTQVTVSS | low polyreactivity
39 | QVQLVESGGGLVQAGGSLRLSCAASGRTFPYYAMGWYRQAPGKERELVARITSGSGTYYADSVKGRFTISRDNAKNTVYLQMNSLKPEDTAVYYCAAREPGVGYVGHYTGLDYWGQGTQVTVSS | low polyreactivity
40 | QVQLVESGGGLVQAGGSLRLSCAASGRTFPYYDIGWYRKAPGKERELVAAITSGGTTNYADSVKGRFTISRDNAKNTVYLQMNSLKPEDTAVYNCAAGSPWYYFSSYGYWGQGTQVTVSS | low polyreactivity
41 | QVQLVESGGGLVQAGGSLRLSCAASGRTFQDNAMGWNRQAPGKETELVAAISWRGGSTNYADSVKGRFTISRDHAKNTVYLQMNSLKPEHTAVYYCNRDPRKYGKLDYWGQGTQVTVSS | low polyreactivity
